Target: C-terminally truncated SthK 1-420
Assay: high-speed atomic force microscopy (HS-AFM); SthK reconstituted in lipid bilayers (E. coli polar lipid extract, lipid-to-protein ratio 0.8 to 1.0 w:w) as 2D-crystals, adsorbed on mica; imaging buffer 20 mM HEPES pH 8.0, 100 mM KCl, 100 uM cAMP; the oligomer is seen in topographs of single channels

stoichiometry N: 4
Substance: C-terminally truncated SthK 1-420 (domain or fragment)

From article PMC6162275
